Data: publication PMC5871871 (Autophagy, 2013)
Like-named read-outs stand apart in the source and are kept apart here.

B1: Atg17 (recombinant, His-MBP tag removed by TEV), in the untagged Atg17-Atg31-Atg29 complex (natural protein, S. cerevisiae, UniProt Q06410 1-417, looked up)
chain: MNEADVTKFVNNARKTLTDAQLLCSSANLRIVDIKKKLSSWQLSISKLNFLIVGLRQQGKFLYTILKEGIGTKLIQKQWNQAVLVVLVDEMKYWQYEITSKVQRLDGIVNELSISEKDDTDPSKLGDYISRDNVNLLNDKLKEVPVIERQIENIKLQYENMVRKVNKELIDTKLTDVTQKFQSKFGIDNLMETNVAEQFSRELTDLEKDLAEIMNSLTQHFDKTLLLQDKKIDNDEREELFKVVQGDDKELYNIFKTLHEVIDDVDKTILNLGQFLQAKIKEKTELHSEVSEIINDFNRNLEYLLIFKDISNLIDSFKNSCTQDIQTTKELCEFYDNFEESYGNLVLEAKRRKDVANRMKTILKDCEKQLQNLDAQDQEERQNFIAENGTYLPETIWPGKIDDFSSLYTLNYNVKNP
B2: His-MBP-tagged Atg17 (natural protein, S. cerevisiae, UniProt Q06410 1-417, looked up)
chain: MNEADVTKFVNNARKTLTDAQLLCSSANLRIVDIKKKLSSWQLSISKLNFLIVGLRQQGKFLYTILKEGIGTKLIQKQWNQAVLVVLVDEMKYWQYEITSKVQRLDGIVNELSISEKDDTDPSKLGDYISRDNVNLLNDKLKEVPVIERQIENIKLQYENMVRKVNKELIDTKLTDVTQKFQSKFGIDNLMETNVAEQFSRELTDLEKDLAEIMNSLTQHFDKTLLLQDKKIDNDEREELFKVVQGDDKELYNIFKTLHEVIDDVDKTILNLGQFLQAKIKEKTELHSEVSEIINDFNRNLEYLLIFKDISNLIDSFKNSCTQDIQTTKELCEFYDNFEESYGNLVLEAKRRKDVANRMKTILKDCEKQLQNLDAQDQEERQNFIAENGTYLPETIWPGKIDDFSSLYTLNYNVKNP

What was measured:
[1] = target: the molecule itself; test: negative-stain single-particle EM
[2] = target: the molecule itself; test: negative-stain single-particle EM; remark: listed apart in the source

Protein	stoichiometry N [1]	stoichiometry N [2]
B1	2	–
B2	–	2
